Experiments:
[1] = molecular target: T1, Hfq72 (Escherichia coli, UniProt P0A6X3 1-72); assay: fluorescence anisotropy; first of two events; 1 g/l BSA; ITC/FA: 0.25 M NaCl, 20 mM Hepes/NaOH pH 8.0, 5 mM MgCl2, 2% glycerol, 25 C (FA plus 1 g/l BSA); EMSA: 0.25 M NaCl, 50 mM Tris pH 7.5, 10% glycerol, 25 C, 20 nM RNA, 2-200 nM Hfq; details: protein: recombinant; tags: 6xHis-SUMO tag cleaved (SenP2); chain copies: 6; label: 3'-ATTO488
[2] = molecular target: T2, Hfq102 (Escherichia coli, UniProt P0A6X3 1-102); assay: AUC; s = 4.5S alone; with OxyS segment ternary s = 5.9S; ITC/FA: 0.25 M NaCl, 20 mM Hepes/NaOH pH 8.0, 5 mM MgCl2, 2% glycerol, 25 C (FA plus 1 g/l BSA); EMSA: 0.25 M NaCl, 50 mM Tris pH 7.5, 10% glycerol, 25 C, 20 nM RNA, 2-200 nM Hfq; details: protein: recombinant; tags: 6xHis-SUMO tag cleaved (SenP2); chain copies: 6; label: 3' Cy3 or Cy5
[3] = molecular target: T2, Hfq102; assay: AUC; s = 4.5S alone; with fhlA segment ternary s = 5.9S; ITC/FA: 0.25 M NaCl, 20 mM Hepes/NaOH pH 8.0, 5 mM MgCl2, 2% glycerol, 25 C (FA plus 1 g/l BSA); EMSA: 0.25 M NaCl, 50 mM Tris pH 7.5, 10% glycerol, 25 C, 20 nM RNA, 2-200 nM Hfq; details: protein: recombinant; tags: 6xHis-SUMO tag cleaved (SenP2); chain copies: 6; label: 3' Cy5 or Cy3
[4] = molecular target: T1, Hfq72; assay: X-ray crystallography; 2.5 A; distal face; (Hfq6:A18)2 dimer by N-site base stacking; pH 4.2; ITC/FA: 0.25 M NaCl, 20 mM Hepes/NaOH pH 8.0, 5 mM MgCl2, 2% glycerol, 25 C (FA plus 1 g/l BSA); EMSA: 0.25 M NaCl, 50 mM Tris pH 7.5, 10% glycerol, 25 C, 20 nM RNA, 2-200 nM Hfq; details: protein: recombinant; tags: 6xHis-SUMO tag cleaved (SenP2); chain copies: 6
[5] = molecular target: T3, Hfq102R16A,R17A (Escherichia coli, UniProt P0A6X3 1-102, R16A;R17A); assay: EMSA; significant supershift; ITC/FA: 0.25 M NaCl, 20 mM Hepes/NaOH pH 8.0, 5 mM MgCl2, 2% glycerol, 25 C (FA plus 1 g/l BSA); EMSA: 0.25 M NaCl, 50 mM Tris pH 7.5, 10% glycerol, 25 C, 20 nM RNA, 2-200 nM Hfq; details: protein: recombinant; tags: 6xHis-SUMO tag cleaved (SenP2); chain copies: 6; label: 5'-32P
[6] = molecular target: T3, Hfq102R16A,R17A; assay: EMSA; two shifted bands; ITC/FA: 0.25 M NaCl, 20 mM Hepes/NaOH pH 8.0, 5 mM MgCl2, 2% glycerol, 25 C (FA plus 1 g/l BSA); EMSA: 0.25 M NaCl, 50 mM Tris pH 7.5, 10% glycerol, 25 C, 20 nM RNA, 2-200 nM Hfq; details: protein: recombinant; tags: 6xHis-SUMO tag cleaved (SenP2); chain copies: 6; label: none (AUC, ITC); 5'-32P (EMSA)
[7] = molecular target: T1, Hfq72; assay: ITC; first of two events; ITC/FA: 0.25 M NaCl, 20 mM Hepes/NaOH pH 8.0, 5 mM MgCl2, 2% glycerol, 25 C (FA plus 1 g/l BSA); EMSA: 0.25 M NaCl, 50 mM Tris pH 7.5, 10% glycerol, 25 C, 20 nM RNA, 2-200 nM Hfq; details: protein: recombinant; tags: 6xHis-SUMO tag cleaved (SenP2); chain copies: 6; label: none (AUC, ITC); 5'-32P (EMSA)

In the case of AAAAAAAAAAAAAAAAAAAA (ssRNA) [A20-ATTO488], the Kd [1] is reported as 400 pM.

CUAAUAAAAUUCUACCUAGAAGAACAAAAUGUC (ssRNA) [fhlA (ARN)X segment]: binds [2].

UCAACUCGAAUAACUAAAGCCAACGUGAAC (ssRNA) [OxyS (ARN)X segment]: binds [3].

AAAAAAAAAAAAAAAAAA (ssRNA) [A18 (ordered part of A30)]: binds [4].

AAGAAGAAGAAGAAGAAGAA (ssRNA) [AAG]: binds [5].

AAAAAAAAAAAAAAAAAAAA (ssRNA) [A20] was tested, and the binding result [6] was “binds” and the Kd [7] was 1300 pM.

Source: publication PMC5575007, “Intermolecular base stacking mediates RNA-RNA interaction in a crystal structure of the RNA chaperone Hfq”
